Test results published in the supplement of paper PMC12783771.
± gives the standard deviation of the averaged measurements.

B1: library; numbered along this chain (parent)
chain: MNIQIGELAKRTACPVVTIRFYEQEGLLPPPGRSRGNFRLYGEEHVERLQFIRHCRSLDMPLSDVRTLLSYRKRPDQDCGEVNMLLDEHIRQVESRIGALLELKHHLVELREACSGARPAQSCGILQGLSDCVCDTRGTTAHPSD

Legend:
[1] = variants of: B1; assay: sfGFP reporter fluorescence (15 h) (µM FITC); higher = higher leak; details: library round: Round 0; ligand: none
Description: (§1)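 Cell-free (BL21 Star DE3 extract, PANOx-SP) biosensing: 1 µL Echo-assembled reactions with linear PbrR variant templates (5 nM) and pPbrR-sfGFP reporter, with 1 µM Pb (lead chloride), 30 µM Zn (zinc acetate) or no ligand; endpoint sfGFP fluorescence after 15 h at 30 °C, calibrated as µM FITC. Round 0 library (alanine scan, site saturation, combinatorial) of PbrR from Cupriavidus metallidurans; 2 biological replicates.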

[2] = variants of: B1; assay: sfGFP reporter fluorescence (15 h) (µM FITC); higher = stronger transcriptional activation; details: library round: Round 0
Description: as §1

Variant	sfGFP reporter fluorescence [1]	sfGFP reporter fluorescence ([2]; ligand: 1 µM Pb)	sfGFP reporter fluorescence ([2]; ligand: 30 µM Zn)
G6M	0.0603 ± 0.0013	0.0586 ± 0.001	0.0654 ± 0.0034
G6H	0.06267 ± 0.00052	0.0603 ± 0.00078	0.0698 ± 0.0029
G6Q	0.0592 ± 0.0023	0.05754 ± 0.00052	0.0746 ± 0.0039
G6Y	0.0603 ± 0.0034	0.0608 ± 0.001	0.066
G6S	0.0608 ± 0.0021	0.06853 ± 0.00052	0.412 ± 0.027
C14A	0.0687 ± 0.0018	0.0726 ± 0.0015	0.317 ± 0.01
R20C	0.063 ± 0.0015	0.0618 ± 0.00078	0.0634 ± 0.001
R20I	0.0585 ± 0.00078	0.06285 ± 0.00026	0.142 ± 0.0057
R20M	0.0607 ± 0.00078	0.06066 ± 0.00026	0.0605 ± 0.0021
R20Y	0.06249 ± 0.00026	0.06377 ± 0.00052	0.124 ± 0.0018
R20H	0.0618 ± 0.0044	0.0647 ± 0.0018	0.1048 ± 0.001
R20G	0.05864 ± 0.00052	0.0563 ± 0.0018	0.0625 ± 0.0034
R20F	0.0566 ± 0.0013	0.05846 ± 0.00026	0.0581 ± 0.0039
R20A	0.05772 ± 0.00026	0.0548 ± 0.0018	0.0572 ± 0.001
R20L	0.06102 ± 0.00026	0.0597 ± 0.0026	0.0671 ± 0.0047
R20T	0.0625 ± 0.0018	0.0612 ± 0.0021	0.06102 ± 0.00026
R20S	0.0634 ± 0.0021	0.061 ± 0.0023	0.063
R20K	0.0623 ± 0.001	0.0625 ± 0.0018	0.064 ± 0.00078
R20V	0.0623 ± 0.00052	0.0618 ± 0.0023	0.0627 ± 0.0026
R20D	0.0614 ± 0.0023	0.0616 ± 0.0015	0.0687 ± 0.0013
R20N	0.06304 ± 0.00052	0.0674 ± 0.001	0.102 ± 0.0044
R20E	0.0603 ± 0.0023	0.0616 ± 0.0015	0.06175 ± 0.00026
R20Q	0.06212 ± 0.00026	0.0607 ± 0.00078	0.074 ± 0.0031

Variant	sfGFP reporter fluorescence [1]	sfGFP reporter fluorescence ([2]; ligand: 1 µM Pb)	sfGFP reporter fluorescence ([2]; ligand: 30 µM Zn)
R20P	0.06285 ± 0.00026	0.05974 ± 0.00052	0.0673 ± 0.0013
R20W	0.0625 ± 0.0018	0.06157 ± 0.00052	0.063 ± 0.0015
T12A	0.0564 ± 0.0026	0.0733 ± 0.0015	0.611 ± 0.019
L27C	0.06285 ± 0.00026	0.0641 ± 0.001	0.142 ± 0.0023
L27V	0.0625 ± 0.00078	0.0717 ± 0.00078	0.349 ± 0.0044
L27T	0.0621 ± 0.0013	0.06029 ± 0.00026	0.0594 ± 0.0026
L27P	0.0607 ± 0.0034	0.0612 ± 0.001	0.0656 ± 0.0026
L27E	0.0603 ± 0.0013	0.0616 ± 0.0015	0.0577 ± 0.00078
L27Y	0.066	0.0792 ± 0.0021	0.254 ± 0.011
L27M	0.0643 ± 0.0018	0.0971 ± 0.0036	0.743 ± 0.04
L27I	0.0596 ± 0.00078	0.0803 ± 0.0015	0.555 ± 0.033
L27H	0.0623 ± 0.0015	0.06322 ± 0.00026	0.0762 ± 0.001
L27W	0.0616 ± 0.0036	0.0623	0.0638
L27N	0.06322 ± 0.00026	0.0616 ± 0.0031	0.0601
L27A	0.0632 ± 0.00078	0.05827 ± 0.00052	0.0733
L27K	0.064 ± 0.0013	0.06084 ± 0.00052	0.0614 ± 0.0018
L27D	0.0627 ± 0.0015	0.0603 ± 0.0018	0.0574 ± 0.0018
L27S	0.0623 ± 0.00052	0.0621 ± 0.00078	0.0647 ± 0.0029
L27R	0.0656 ± 0.0026	0.0658 ± 0.0013	0.0665 ± 0.00078
L27F	0.0673 ± 0.0023	0.104 ± 0.0029	0.493 ± 0.035
L27G	0.0608 ± 0.001	0.0597 ± 0.0015	0.0649 ± 0.0036
L27Q	0.06432 ± 0.00026	0.0618 ± 0.0013	0.06285 ± 0.00026
E23A	0.0608 ± 0.0015	0.05827 ± 0.00052	0.104 ± 0.0026

Variant	sfGFP reporter fluorescence [1]	sfGFP reporter fluorescence ([2]; ligand: 1 µM Pb)	sfGFP reporter fluorescence ([2]; ligand: 30 µM Zn)
K10A	0.05644 ± 0.00052	0.0687 ± 0.0023	0.567 ± 0.026
L8A	0.0575 ± 0.0021	0.0667 ± 0.0042	0.313 ± 0.038
F21I	0.0597	0.0575 ± 0.0031	0.0607 ± 0.0018
F21D	0.0616 ± 0.0015	0.0614 ± 0.0013	0.0599 ± 0.00078
F21V	0.0625 ± 0.00078	0.0608	0.0669 ± 0.00078
F21Y	0.06102 ± 0.00026	0.0755 ± 0.0015	0.819 ± 0.015
F21H	0.0596 ± 0.0018	0.0629 ± 0.0023	0.276 ± 0.0091
F21T	0.0601 ± 0.0015	0.06121 ± 0.00052	0.06066 ± 0.00026
F21K	0.0607 ± 0.0013	0.06157 ± 0.00052	0.0641
F21N	0.0605 ± 0.0015	0.0605 ± 0.0021	0.06267 ± 0.00052
F21S	0.06341 ± 0.00052	0.0608 ± 0.001	0.06304 ± 0.00052
F21W	0.0702 ± 0.0013	0.124 ± 0.0031	0.945 ± 0.029
F21A	0.059	0.0541 ± 0.0013	0.0673 ± 0.0013
F21G	0.059	0.0577 ± 0.0023	0.0588 ± 0.00078
F21Q	0.0605	0.05827 ± 0.00052	0.0625 ± 0.00078
F21L	0.0612 ± 0.001	0.0581 ± 0.0013	0.0696 ± 0.001
F21E	0.0596 ± 0.00078	0.06175 ± 0.00026	0.0608 ± 0.0015
F21M	0.0599 ± 0.0013	0.0619 ± 0.0021	0.09 ± 0.0086
F21C	0.0599 ± 0.0029	0.0597	0.0583 ± 0.001
F21R	0.0645	0.06212 ± 0.00026	0.0685 ± 0.0021
F21P	0.0619	0.0603 ± 0.0018	0.0629 ± 0.0018
I19A	0.0577 ± 0.0013	0.0592 ± 0.00078	0.08063 ± 0.00052
V17A	0.0568 ± 0.001	0.0566 ± 0.0013	0.622 ± 0.11

Variant	sfGFP reporter fluorescence [1]	sfGFP reporter fluorescence ([2]; ligand: 1 µM Pb)	sfGFP reporter fluorescence ([2]; ligand: 30 µM Zn)
Q24A	0.0559 ± 0.0029	0.05827 ± 0.00052	0.534 ± 0.052
V16W	0.0599 ± 0.0018	0.0623 ± 0.0021	0.064 ± 0.00078
V16G	0.0594 ± 0.0026	0.0812 ± 0.0018	0.493 ± 0.014
V16Q	0.0663 ± 0.0031	0.112 ± 0.0083	1.425 ± 0.0039
V16K	0.0641 ± 0.0021	0.115 ± 0.0021	1.93 ± 0.075
V16Y	0.0629 ± 0.00078	0.0678 ± 0.001	0.119 ± 0.0018
V16A	0.059 ± 0.0015	0.0729 ± 0.0015	1.06 ± 0.1
V16R	0.0671 ± 0.001	0.132 ± 0.0057	2.03 ± 0.3
V16E	0.06341 ± 0.00052	0.0762 ± 0.001	0.986 ± 0.046
V16I	0.05864 ± 0.00052	0.0768 ± 0.0018	0.981 ± 0.061
V16C	0.0634	0.0861 ± 0.0021	0.341 ± 0.081
V16P	0.06102 ± 0.00026	0.08796 ± 0.00052	1.53 ± 0.031
V16F	0.0623 ± 0.0015	0.0641	0.107 ± 0.0029
V16N	0.0643 ± 0.0013	0.08686 ± 0.00052	0.487 ± 0.011
V16T	0.0641 ± 0.0031	0.0982 ± 0.0021	1.14 ± 0.09
V16D	0.0649 ± 0.0015	0.0975 ± 0.0026	0.9703 ± 0.0039
V16M	0.0647 ± 0.0029	0.099 ± 0.0052	0.9379 ± 0.0042
V16H	0.06542 ± 0.00026	0.109 ± 0.0086	0.447 ± 0.0096
V16L	0.06249 ± 0.00026	0.0825 ± 0.0021	0.56 ± 0.022
V16S	0.06707 ± 0.00052	0.1145 ± 0.00026	1.22 ± 0.028
